How the values were obtained:
[1] = biological target: biotin-hBA2 binding to hTie-2 (Homo sapiens, UniProt O15123); assay: ELISA blocking of biotinylated hBA2 binding to hTie-2-His; assay type: biochemical; conditions: 20 pM biotinylated hBA2; average of two separate experiments; read-out: Biotin - hBA2 Average IC50
Procedure: For this experiment, human Tie-2 conjugated to a histidine tag (hTie-2-His; SEQ ID NO:526) was used in a similar fashion to the hTie-2-mFc described above. Antibody concentrations from 5 nM were serially diluted three-fold. […] An average IC50 value for each antibody was calculated based on two separate experiments.

[2] = system: Tie-2 phosphorylation (Ang-2-mediated) in HUVECs; assay: Inhibition of Ang-2-mediated Tie-2 phosphorylation in FOXO1-adenovirus infected HUVECs; assay type: cell-based, human; conditions: antibody 0.5 μg/ml
How it was run: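 FOXO1-adenovirus-infected HUVECs, which secrete Ang-2, received anti-Ang-2 antibodies at 0.5 μg/ml in MCDB131. Percent inhibition was the reduction in phospho-Tie-2/Tie-2 ratio versus control.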

Chain of biotin-hBA2 binding to hTie-2 (O15123 with tags, fused parts or gaps): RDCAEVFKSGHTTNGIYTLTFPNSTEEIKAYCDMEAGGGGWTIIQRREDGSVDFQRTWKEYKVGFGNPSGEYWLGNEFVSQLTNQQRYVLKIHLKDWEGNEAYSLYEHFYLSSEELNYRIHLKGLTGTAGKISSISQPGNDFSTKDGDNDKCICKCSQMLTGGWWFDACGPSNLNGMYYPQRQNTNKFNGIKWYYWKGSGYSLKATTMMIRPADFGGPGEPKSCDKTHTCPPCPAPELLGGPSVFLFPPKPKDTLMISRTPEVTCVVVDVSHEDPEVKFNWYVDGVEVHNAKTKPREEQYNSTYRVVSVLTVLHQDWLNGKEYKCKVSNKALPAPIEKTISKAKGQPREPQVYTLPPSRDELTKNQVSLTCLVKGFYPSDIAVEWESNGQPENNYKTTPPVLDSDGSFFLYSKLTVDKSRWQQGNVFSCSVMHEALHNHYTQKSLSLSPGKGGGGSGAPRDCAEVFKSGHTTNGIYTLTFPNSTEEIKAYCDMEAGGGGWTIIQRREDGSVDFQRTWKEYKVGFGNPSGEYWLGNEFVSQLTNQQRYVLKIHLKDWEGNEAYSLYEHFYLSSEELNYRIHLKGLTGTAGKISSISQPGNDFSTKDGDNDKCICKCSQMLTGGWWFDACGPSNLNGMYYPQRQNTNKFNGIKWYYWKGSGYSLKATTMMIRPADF

IC50 [1]: 0.0141 nM
B1: H1M728N: anti-Ang-2 antibody, HCVR/LCVR SEQ ID NOs 290/298 (antibody, V domains shown)
VH: EVQLVESGGDLVQPGGSLRLSCTASGFTFSKYWMTWVRQAPGRGLEWVANIKEDGNEKYFLDSVKGRFTISRDNAKDLLFLQMNSLRGEDTAVYYCVRDRGIEVAGPFDYWGQGTLVTVSS
VL: DIQMTQSPSTLSASVGDRVTVTCRASQTIINWLAWYQQKPGKAPKLLISKASSLESGVPSRFSGSGSGTEFTLTISSLQPDDFATYYCQQYNRYWTFGQGTMVEIK
Inhibition of Tie-2 phosphorylation [2]: ++ (50-75%)
